Measured values: article PMC6918743, “Mammalian TRP ion channels are insensitive to membrane stretch” (Journal of Cell Science, 2019)

B1: Δ94 mTRPC6 (94 aa N-terminally truncated mouse TRPC6) (domain or fragment, UniProt Q61143 95-930, looked up)
chain: SIEEERFLDAAEYGNIPVVRKMLEECHSLNVNCVDYMGQNALQLAVANEHLEITELLLKKENLSRVGDALLLAISKGYVRIVEAILNHPAFAEGKRLATSPSQSELQQDDFYAYDEDGTRFSHDVTPIILAAHCQEYEIVHTLLRKGARIERPHDYFCKCTECSQKQKHDSFSHSRSRINAYKGLASPAYLSLSSEDPVMTALELSNELAVLANIEKEFKNDYRKLSMQCKDFVVGLLDLCRNTEEVEAILNGDAETRQPGDFGRPNLSRLKLAIKYEVKKFVAHPNCQQQLLSIWYENLSGLRQQTMAVKFLVVLAVAIGLPFLALIYWCAPCSKMGKILRGPFMKFVAHAASFTIFLGLLVMNAADRFEGTKLLPNETSTDNARQLFRMKTSCFSWMEMLIISWVIGMIWAECKEIWTQGPKEYLFELWNMLDFGMLAIFAASFIARFMAFWHASKAQSIIDANDTLKDLTKVTLGDNVKYYNLARIKWDPTDPQIISEGLYAIAVVLSFSRIAYILPANESFGPLQISLGRTVKDIFKFMVIFIMVFVAFMIGMFNLYSYYIGAKQNEAFTTVEESFKTLFWAIFGLSEVKSVVINYNHKFIENIGYVLYGVYNVTMVIVLLNMLIAMINSSFQEIEDDADVEWKFARAKLWFSYFEEGRTLPVPFNLVPSPKSLLYLLLKFKKWMCELIQGQKQGFQEDAEMNKRNEEKKFGISGSHEDLSKFSLDKNQLAHNKQSSTRSSEDYHLNSFSNPPRQYQKIMKRLIKRYVLQAQIDKESDEVNEGELKEIKQDISSLRYELLEEKSQNTEDLAELIRKLGERLSLEPKLEESRR
notes: TRPC6, Mus musculus, N-terminal truncation of 94 aa (Δ94); The limit 95 follows from the printed '94 aa truncated' N-terminal truncation; Tags removed with ProTEV Plus protease; solubilised in DDM; also called Δ94 TRPC6; N-terminal truncation (Δ94) of TRPC6; source: Sf9 (baculovirus, Bac-to-Bac), purified (amylose resin, Superose 6); not shown: His8, N-terminal, cleaved; MBP, N-terminal, cleaved
B2: mouse TRPC6, full-length (WT) protein (natural protein, UniProt Q61143 1-930, looked up)
chain: MSQSPRFVTRRGGSLKAAPGAGTRRNESQDYLLMDELGDDGYPQLPLPPYGYYPSFRGNENRLTHRRQTILREKGRRLANRGPAYMFNDHSTSLSIEEERFLDAAEYGNIPVVRKMLEECHSLNVNCVDYMGQNALQLAVANEHLEITELLLKKENLSRVGDALLLAISKGYVRIVEAILNHPAFAEGKRLATSPSQSELQQDDFYAYDEDGTRFSHDVTPIILAAHCQEYEIVHTLLRKGARIERPHDYFCKCTECSQKQKHDSFSHSRSRINAYKGLASPAYLSLSSEDPVMTALELSNELAVLANIEKEFKNDYRKLSMQCKDFVVGLLDLCRNTEEVEAILNGDAETRQPGDFGRPNLSRLKLAIKYEVKKFVAHPNCQQQLLSIWYENLSGLRQQTMAVKFLVVLAVAIGLPFLALIYWCAPCSKMGKILRGPFMKFVAHAASFTIFLGLLVMNAADRFEGTKLLPNETSTDNARQLFRMKTSCFSWMEMLIISWVIGMIWAECKEIWTQGPKEYLFELWNMLDFGMLAIFAASFIARFMAFWHASKAQSIIDANDTLKDLTKVTLGDNVKYYNLARIKWDPTDPQIISEGLYAIAVVLSFSRIAYILPANESFGPLQISLGRTVKDIFKFMVIFIMVFVAFMIGMFNLYSYYIGAKQNEAFTTVEESFKTLFWAIFGLSEVKSVVINYNHKFIENIGYVLYGVYNVTMVIVLLNMLIAMINSSFQEIEDDADVEWKFARAKLWFSYFEEGRTLPVPFNLVPSPKSLLYLLLKFKKWMCELIQGQKQGFQEDAEMNKRNEEKKFGISGSHEDLSKFSLDKNQLAHNKQSSTRSSEDYHLNSFSNPPRQYQKIMKRLIKRYVLQAQIDKESDEVNEGELKEIKQDISSLRYELLEEKSQNTEDLAELIRKLGERLSLEPKLEESRR
notes: TRPC6, Mus musculus, full-length (WT) protein; Tags removed with ProTEV Plus protease; solubilised in DDM; also called mTRPC6; WT TRPC6; source: Sf9 (baculovirus, Bac-to-Bac), purified (amylose resin, Superose 6); not shown: His8, N-terminal, cleaved; MBP, N-terminal, cleaved

Target: the molecule itself
Test: SEC; Superose 6 10/300 GL column; 150 mM NaCl, 20 mM HEPES, 2 mM TCEP (pH 7.4); DDM-mTRPC6 protein complex; peak assigned to the tetramer

Protein	stoichiometry N
B1	4
B2	4
